Assay results: patent US20250339569A1, “CARBONIC ANHYDRASE IX LIGANDS” (priority 2021, published 2025)

Biological target: human carbonic anhydrase 9 (CAIX) (human), Q16790
Test: FACS competition on HT-29 cells, competitor tracer 3BP-2776; category A = pIC50 >8.0

B1: 3BP-4179 (peptide)
peptide: VCCEPDWLTWCC
modifications: not checked
pIC50: > 8 pic50
